T1: C5 beta chain (human, UniProt P01031 19-673, reduced with DTT and treated with iodoacetamide (alkylated cysteines))
T1 construct: domain: beta chain; Separated from purified C5 by reduction, alkylation and gel filtration on Superose 12; also called beta sub-unit of C5; C5 beta subunit
T1 sequence (looked up): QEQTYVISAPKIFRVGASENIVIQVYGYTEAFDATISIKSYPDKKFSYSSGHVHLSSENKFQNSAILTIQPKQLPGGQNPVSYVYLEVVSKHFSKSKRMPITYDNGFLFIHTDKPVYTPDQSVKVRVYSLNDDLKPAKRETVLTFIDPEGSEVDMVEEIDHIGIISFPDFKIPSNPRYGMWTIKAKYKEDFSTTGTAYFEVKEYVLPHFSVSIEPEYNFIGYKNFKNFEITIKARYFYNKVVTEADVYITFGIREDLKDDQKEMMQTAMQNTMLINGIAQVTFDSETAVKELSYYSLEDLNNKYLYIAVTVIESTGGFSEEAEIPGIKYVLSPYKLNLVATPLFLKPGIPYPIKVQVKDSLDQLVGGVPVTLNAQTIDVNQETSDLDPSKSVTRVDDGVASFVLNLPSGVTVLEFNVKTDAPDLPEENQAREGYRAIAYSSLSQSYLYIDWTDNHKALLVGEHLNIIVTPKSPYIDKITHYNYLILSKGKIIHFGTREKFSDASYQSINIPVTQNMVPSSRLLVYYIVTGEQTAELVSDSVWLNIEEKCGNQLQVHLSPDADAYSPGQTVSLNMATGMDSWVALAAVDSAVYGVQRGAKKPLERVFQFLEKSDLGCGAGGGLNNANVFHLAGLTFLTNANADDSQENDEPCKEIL

B1: unrelated peptide CS5, derived from fibronectin (GEEIQIGHIPREDVDYHLYP) (peptide)
peptide: GEEIQIGHIPREDVDYHLYP
B2: scFv TS-A12/22 (scFv, not shown: small tags and cut ends)
scFv: DIRMTQSPDSLAVSLGERATINCKSSQSVLYSSNNKNYLAWYQQKPGQPPKLLIYWASTRESGVPDRFSGSGSGTDFTLTISSLQAEDVAVYYCQQYYSTPQLTFGGRTKVDIKSGGSTITSYNVYYTKLSSSGTQVQLQQSEGGVVQPGRSLRLSCAASGFTFSSYGMNWVRQAPGKGLEWVSYISSSSSTIYYADSVKGRFTISRDNSKNTLYLQMNSLRAEDTAVYYCARGPGMDVWGQGTTVTVSS
notes: Obtained from TS-A12 by VL chain shuffling; also called TS-A12/22 antibody

Legend:
scFv TS-A12/22 = biological target: B2; test: competitive ELISA: scFv TSA-12/22 (1 µg/ml) pre-incubated with the peptide, then binding to C5 on solid phase, given as % of the saline control
Source text: (§1) This peptide corresponds to region 727-744 of the mature protein and comprises the cleavage site of C5 convertase (indicated by the arrow) between glycine 733 and arginine 734 according to SwissProt numbering for human C5 (SEQ ID P01031). The peptide was used in a competitive ELISA assay on the C5 protein on solid phase. […] (SEQ ID No. 16 of sequence listing) corresponding to a fibronectin derived peptide termed CS5.

C5 beta chain = biological target: T1, C5 beta chain; test: Western blot
Description: Briefly the two subunits were electrophoresed in separate wells and transferred on nitrocellulose membranes. A solution containing Tris 50 mM pH 7.6, 0.5 M NaCl and 4% skimmed powder milk was used to block non-specific sites for 1 hour at 37° C. […] The enzymatic reaction was developed with blue tetrazolium and 5-bromo-4-chlorine-3-indolil phosphate (Sigma-Aldrich, 0.30 mg/ml) diluted in 0.1 M Tris-HCl pH 9.5 containing 0.1 M NaCl and 5 mM MgCl₂.

[1] = biological target: T2, C5 component of the complement system (purified C5) (human, UniProt P01031 19-673; P01031 678-1676); test: SPR, BIACORE 2000, C5 immobilised on the chip
T2 construct: domain: beta chain;domain: alpha chain; In haemolytic assays it was purified C5 or the C5 of human serum; also called factor C5; C5 antigen
Description: The microchip (CM5, Biacore) was prepared by direct conjugation of the C5 antigen with amines (20 μg/ml in 10 mM Sodium Acetate pH 4.5). The final level of immobilisation turned out to be approximately 1000 RU (Resonance Units). Association and dissociation of antibody molecules from the bio-chip were measured using an optical detection system (Surface Plasmon Resonance).
The analysis was carried out at 25° C., at a flow of 15 μl/min, using 4 different scFv concentrations in the range comprised between 100-300 nM, in PBS, 0.005% P20 (Biacore). The binding curves were interpolated 1:1 according to the model of Langmuir, using the dedicated software termed BIAevaluation (version 3.5) with correction for the mass transfer.

[2] = biological target: B1; test: competitive ELISA: scFv pre-incubated with the peptide, binding to C5 on solid phase
Source text: as §1

T2 sequence (P01031 678-1676 limits assumed, one chain of several): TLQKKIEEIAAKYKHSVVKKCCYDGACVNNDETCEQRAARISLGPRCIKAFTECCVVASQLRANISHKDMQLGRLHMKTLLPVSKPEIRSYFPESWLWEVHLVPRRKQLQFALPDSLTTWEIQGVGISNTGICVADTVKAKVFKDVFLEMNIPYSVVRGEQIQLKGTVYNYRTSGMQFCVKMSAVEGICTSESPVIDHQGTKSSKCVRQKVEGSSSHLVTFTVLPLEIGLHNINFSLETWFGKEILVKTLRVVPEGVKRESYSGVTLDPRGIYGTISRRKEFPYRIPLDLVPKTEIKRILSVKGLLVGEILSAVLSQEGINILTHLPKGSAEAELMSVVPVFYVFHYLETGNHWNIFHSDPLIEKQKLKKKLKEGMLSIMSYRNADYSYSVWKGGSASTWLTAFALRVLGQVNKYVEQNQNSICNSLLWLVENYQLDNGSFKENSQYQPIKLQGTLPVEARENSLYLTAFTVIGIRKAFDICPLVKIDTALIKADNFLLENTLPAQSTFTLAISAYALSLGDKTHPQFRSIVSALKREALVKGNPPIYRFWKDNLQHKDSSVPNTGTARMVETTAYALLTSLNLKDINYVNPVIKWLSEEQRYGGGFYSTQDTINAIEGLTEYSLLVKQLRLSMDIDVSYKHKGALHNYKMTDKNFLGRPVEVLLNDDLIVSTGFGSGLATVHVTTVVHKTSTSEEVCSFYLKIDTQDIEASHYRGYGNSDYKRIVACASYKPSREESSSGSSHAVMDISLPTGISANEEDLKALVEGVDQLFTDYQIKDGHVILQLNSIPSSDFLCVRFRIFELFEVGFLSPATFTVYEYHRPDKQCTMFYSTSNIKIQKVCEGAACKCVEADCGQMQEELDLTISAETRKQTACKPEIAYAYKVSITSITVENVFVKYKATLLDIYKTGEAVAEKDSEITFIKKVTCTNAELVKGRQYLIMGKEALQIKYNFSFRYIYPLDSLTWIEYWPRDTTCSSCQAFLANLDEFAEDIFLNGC

Binder	binding result (scFv TS-A12/22)	binding result (C5 beta chain)	Kd [1]	binding result [2]
B1	no binding (tested: 800 ng)			
B2		no binding (tested: 100 ng of beta chain)	18 nM	no binding (tested: 800 ng)

— patent publication US20060115476A1 (ADIENNE, published 2006)
